Assay results taken from patent publication US20200131230A1 (published 2020).
Read-outs that look alike come from different tables or passages of the source. Each block holds one binder with its values, some of them ahead of it. Positions of bridges follow the written chain, without caps; N, C: chain ends. Non-standard residues stand in square brackets, D forms with d. 2Nal = N[C@@H](Cc1ccc2ccccc2c1)C(=O)O; Pen = CC(C)(S)[C@H](N)C(=O)O; Phg = N[C@H](C(=O)O)c1ccccc1; Nle = CCCC[C@H](N)C(=O)O; HCt = not defined here

Columns and labels:
[1] = molecular target: T1, Thrombospondin human platelet (Calbiochem, 605225) (human, UniProt P07996 19-1170); assay: cell-based or functional assay
[2] = molecular target: T1, Thrombospondin human platelet …; assay: cell-based or functional assay; remark: listed apart in the source

T1 sequence (P07996 19-1170 limits assumed): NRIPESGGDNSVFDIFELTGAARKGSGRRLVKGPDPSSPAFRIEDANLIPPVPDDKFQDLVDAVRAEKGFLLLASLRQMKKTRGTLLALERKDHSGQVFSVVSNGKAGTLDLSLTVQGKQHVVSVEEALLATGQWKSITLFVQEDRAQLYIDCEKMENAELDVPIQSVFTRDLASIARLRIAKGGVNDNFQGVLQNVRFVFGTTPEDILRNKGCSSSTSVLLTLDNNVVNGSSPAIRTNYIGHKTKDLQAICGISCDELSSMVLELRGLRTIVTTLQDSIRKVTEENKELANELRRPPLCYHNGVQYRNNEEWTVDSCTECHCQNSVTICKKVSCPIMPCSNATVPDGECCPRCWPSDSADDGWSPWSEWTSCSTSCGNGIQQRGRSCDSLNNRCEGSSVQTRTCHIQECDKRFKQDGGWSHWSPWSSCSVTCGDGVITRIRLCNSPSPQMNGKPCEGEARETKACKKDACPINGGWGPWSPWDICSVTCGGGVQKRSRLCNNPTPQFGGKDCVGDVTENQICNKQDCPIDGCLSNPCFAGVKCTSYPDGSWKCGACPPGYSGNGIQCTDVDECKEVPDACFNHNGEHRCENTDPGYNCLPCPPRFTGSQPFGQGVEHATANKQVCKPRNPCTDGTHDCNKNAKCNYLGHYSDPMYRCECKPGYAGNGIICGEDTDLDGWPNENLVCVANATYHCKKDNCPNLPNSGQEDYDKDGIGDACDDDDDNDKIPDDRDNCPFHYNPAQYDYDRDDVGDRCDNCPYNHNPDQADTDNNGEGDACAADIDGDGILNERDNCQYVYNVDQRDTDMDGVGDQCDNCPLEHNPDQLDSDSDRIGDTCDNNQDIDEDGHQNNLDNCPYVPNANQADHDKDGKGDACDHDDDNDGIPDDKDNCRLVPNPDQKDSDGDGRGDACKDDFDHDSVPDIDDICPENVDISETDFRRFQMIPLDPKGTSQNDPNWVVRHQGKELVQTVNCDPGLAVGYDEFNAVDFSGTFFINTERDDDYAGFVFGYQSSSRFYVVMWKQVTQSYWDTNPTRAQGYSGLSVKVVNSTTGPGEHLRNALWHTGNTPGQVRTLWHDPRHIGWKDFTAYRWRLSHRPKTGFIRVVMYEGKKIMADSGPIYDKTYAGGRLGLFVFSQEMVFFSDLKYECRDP

B3: Compound 85 (peptide)
peptide: {CH2CO}-T[2Nal]ISGRDW[Nle]KWVC-NH2
modifications: thioether N-13
SMILES: CCCC[C@@H]1NC(=O)[C@H](Cc2c[nH]c3ccccc23)NC(=O)[C@H](CC(=O)O)NC(=O)[C@H](CCCNC(=N)N)NC(=O)CNC(=O)[C@H](CO)NC(=O)[C@H]([C@@H](C)CC)NC(=O)[C@H](Cc2ccc3ccccc3c2)NC(=O)[C@H]([C@@H](C)O)NC(=O)CSC[C@@H](C(N)=O)NC(=O)[C@H](C(C)C)NC(=O)[C@H](Cc2c[nH]c3ccccc23)NC(=O)[C@H](CCCCN)NC1=O
Cell adhesion IC50 [1]: 15.5 nM

Binder: {CH2CO}-[2Nal]ISG[HCt]DW[Nle]KWVC-NH2 (thioether N-12; reading uncertain) [Compound 74]
Cell adhesion IC50 [2]: 20.7 nM

Binder: {CH2CO}-[2Nal]ISG[3Hyp]NW[Nle]HWVC-NH2 (thioether N-12) [Compound 69]
Cell adhesion IC50 [2]: 27.9 nM

B7: Compound 82 (peptide)
peptide: {CH2CO}-L[2Nal]ISGRDW[Nle]KWVC-NH2
modifications: thioether N-13
SMILES: CCCC[C@@H]1NC(=O)[C@H](Cc2c[nH]c3ccccc23)NC(=O)[C@H](CC(=O)O)NC(=O)[C@H](CCCNC(=N)N)NC(=O)CNC(=O)[C@H](CO)NC(=O)[C@H]([C@@H](C)CC)NC(=O)[C@H](Cc2ccc3ccccc3c2)NC(=O)[C@H](CC(C)C)NC(=O)CSC[C@@H](C(N)=O)NC(=O)[C@H](C(C)C)NC(=O)[C@H](Cc2c[nH]c3ccccc23)NC(=O)[C@H](CCCCN)NC1=O
Cell adhesion IC50 [1]: 29.9 nM

B9: Compound 79 (peptide)
peptide: {CH2CO}-[2Nal]ISGRDW[Nle]KWV[Pen]-NH2
modifications: thioether N-12
SMILES: CCCC[C@@H]1NC(=O)[C@H](Cc2c[nH]c3ccccc23)NC(=O)[C@H](CC(=O)O)NC(=O)[C@H](CCCNC(=N)N)NC(=O)CNC(=O)[C@H](CO)NC(=O)[C@H]([C@@H](C)CC)NC(=O)[C@H](Cc2ccc3ccccc3c2)NC(=O)CSC(C)(C)[C@@H](C(N)=O)NC(=O)[C@H](C(C)C)NC(=O)[C@H](Cc2c[nH]c3ccccc23)NC(=O)[C@H](CCCCN)NC1=O
Cell adhesion IC50 [1]: 15 nM

The remaining lines, values ahead:

Cell adhesion IC50 [1]: 15.8 nM
B1: Compound 87 (peptide)
peptide: {CH2CO}-F[2Nal]ISGRDW[Nle]KWVC-NH2
modifications: thioether N-13
SMILES: CCCC[C@@H]1NC(=O)[C@H](Cc2c[nH]c3ccccc23)NC(=O)[C@H](CC(=O)O)NC(=O)[C@H](CCCNC(=N)N)NC(=O)CNC(=O)[C@H](CO)NC(=O)[C@H]([C@@H](C)CC)NC(=O)[C@H](Cc2ccc3ccccc3c2)NC(=O)[C@H](Cc2ccccc2)NC(=O)CSC[C@@H](C(N)=O)NC(=O)[C@H](C(C)C)NC(=O)[C@H](Cc2c[nH]c3ccccc23)NC(=O)[C@H](CCCCN)NC1=O

Cell adhesion IC50 [1]: 3.9 nM
B2: Compound 98 (peptide)
peptide: {CH2CO}-[2Nal]RSGKNWVVWVC-NH2
modifications: thioether N-12
SMILES: CC(C)[C@@H]1NC(=O)[C@H](Cc2c[nH]c3ccccc23)NC(=O)[C@H](C(C)C)NC(=O)[C@H](C(C)C)NC(=O)[C@H](Cc2c[nH]c3ccccc23)NC(=O)[C@H](CC(N)=O)NC(=O)[C@H](CCCCN)NC(=O)CNC(=O)[C@H](CO)NC(=O)[C@H](CCCNC(=N)N)NC(=O)[C@H](Cc2ccc3ccccc3c2)NC(=O)CSC[C@@H](C(N)=O)NC1=O

Cell adhesion IC50 [1]: 12.4 nM
B4: Compound 103 (peptide)
peptide: {CH2CO}-[2Nal]RSGKNW[Nle][Phg]WVC-NH2
modifications: thioether N-12
SMILES: CCCC[C@@H]1NC(=O)[C@H](Cc2c[nH]c3ccccc23)NC(=O)[C@H](CC(N)=O)NC(=O)[C@H](CCCCN)NC(=O)CNC(=O)[C@H](CO)NC(=O)[C@H](CCCNC(=N)N)NC(=O)[C@H](Cc2ccc3ccccc3c2)NC(=O)CSC[C@@H](C(N)=O)NC(=O)[C@H](C(C)C)NC(=O)[C@H](Cc2c[nH]c3ccccc23)NC(=O)[C@H](c2ccccc2)NC1=O

Cell adhesion IC50 [1]: 25.1 nM
B5: Compound 94 (peptide)
peptide: {CH2CO}-F[2Nal]ISGKDW[Nle]RWVC-NH2
modifications: thioether N-13
SMILES: CCCC[C@@H]1NC(=O)[C@H](Cc2c[nH]c3ccccc23)NC(=O)[C@H](CC(=O)O)NC(=O)[C@H](CCCCN)NC(=O)CNC(=O)[C@H](CO)NC(=O)[C@H]([C@@H](C)CC)NC(=O)[C@H](Cc2ccc3ccccc3c2)NC(=O)[C@H](Cc2ccccc2)NC(=O)CSC[C@@H](C(N)=O)NC(=O)[C@H](C(C)C)NC(=O)[C@H](Cc2c[nH]c3ccccc23)NC(=O)[C@H](CCCNC(=N)N)NC1=O

Cell adhesion IC50 [1]: 23.8 nM
B6: Compound 89 (peptide)
peptide: {CH2CO}-W[2Nal]ISGRDW[Nle]KWVC-NH2
modifications: thioether N-13
SMILES: CCCC[C@@H]1NC(=O)[C@H](Cc2c[nH]c3ccccc23)NC(=O)[C@H](CC(=O)O)NC(=O)[C@H](CCCNC(=N)N)NC(=O)CNC(=O)[C@H](CO)NC(=O)[C@H]([C@@H](C)CC)NC(=O)[C@H](Cc2ccc3ccccc3c2)NC(=O)[C@H](Cc2c[nH]c3ccccc23)NC(=O)CSC[C@@H](C(N)=O)NC(=O)[C@H](C(C)C)NC(=O)[C@H](Cc2c[nH]c3ccccc23)NC(=O)[C@H](CCCCN)NC1=O

Cell adhesion IC50 [1]: 19.5 nM
B8: Compound 100 (peptide)
peptide: {CH2CO}-[2Nal]RSGHNW[Nle]VWVC-NH2
modifications: thioether N-12
SMILES: CCCC[C@@H]1NC(=O)[C@H](Cc2c[nH]c3ccccc23)NC(=O)[C@H](CC(N)=O)NC(=O)[C@H](Cc2c[nH]cn2)NC(=O)CNC(=O)[C@H](CO)NC(=O)[C@H](CCCNC(=N)N)NC(=O)[C@H](Cc2ccc3ccccc3c2)NC(=O)CSC[C@@H](C(N)=O)NC(=O)[C@H](C(C)C)NC(=O)[C@H](Cc2c[nH]c3ccccc23)NC(=O)[C@H](C(C)C)NC1=O
